Assay results as given in the supplement of paper PMC10065799, “High-throughput profiling of sequence recognition by tyrosine kinases and SH2 domains using bacterial peptide display” (eLife, 2023).

Biological target: FGFR3 (UniProt P22607)
Experiment: phosphorylation enrichment, bacterial display (enrichment ratio); higher = better substrate or ligand; peptides without Tyr show the background
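Also: 11-residue human phosphosite peptides and single-mutation variants displayed on the E. coli surface, counted by deep sequencing, each peptide's frequency after selection divided by its frequency in the unselected input library; frequency after pTyr selection over input frequency; kinase dosed for 20-30% of maximal phosphorylation in three min.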

Chain of FGFR3 (P22607 whole entry, looked up): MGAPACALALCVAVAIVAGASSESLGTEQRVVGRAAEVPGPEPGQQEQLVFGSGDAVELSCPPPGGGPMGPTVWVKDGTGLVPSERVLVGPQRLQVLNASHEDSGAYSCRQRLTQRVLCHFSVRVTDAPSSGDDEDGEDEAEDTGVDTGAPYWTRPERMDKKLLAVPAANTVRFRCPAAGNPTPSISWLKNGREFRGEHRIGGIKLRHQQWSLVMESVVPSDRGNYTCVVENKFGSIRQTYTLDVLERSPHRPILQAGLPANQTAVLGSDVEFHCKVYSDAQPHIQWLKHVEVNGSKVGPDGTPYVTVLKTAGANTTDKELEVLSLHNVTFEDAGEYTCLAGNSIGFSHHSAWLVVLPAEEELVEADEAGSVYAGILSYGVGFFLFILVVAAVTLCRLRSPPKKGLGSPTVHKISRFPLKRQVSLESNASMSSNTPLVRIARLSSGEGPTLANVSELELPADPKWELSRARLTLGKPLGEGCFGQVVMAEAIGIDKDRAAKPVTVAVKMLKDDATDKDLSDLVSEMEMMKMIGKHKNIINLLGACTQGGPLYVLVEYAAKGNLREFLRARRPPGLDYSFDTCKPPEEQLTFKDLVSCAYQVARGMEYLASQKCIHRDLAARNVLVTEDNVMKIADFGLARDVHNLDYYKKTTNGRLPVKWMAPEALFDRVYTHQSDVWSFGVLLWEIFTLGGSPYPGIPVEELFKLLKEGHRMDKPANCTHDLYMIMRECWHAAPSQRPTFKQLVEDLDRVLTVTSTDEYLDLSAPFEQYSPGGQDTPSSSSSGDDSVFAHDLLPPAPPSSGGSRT

| Sequence | phosphorylation enrichment |
| --- | --- |
| IDSTPYRQWFE [RPS8_Y109_YF] | 0.551 |
| FETSHYPASPD [CTNND2_Y1217_YF] | 0.508 |
| NPIGLYSAETL [LDB3_Y202] | 0.498 |
| QELRRYLESGV [MICA_Y194_K196E] | 0.662 |
| KTSGNYLPVTG [WDR19_Y28_A30P] | 0.37 |
| IRYPPYTDWNQ [ALDH3B2_Y365_H361R] | 0.612 |
| LHVKMYNFLRS [ADGRG7_Y760_R756H] | 0.94 |
| KSDVVYTDWKK [ORM1_Y175] | 0.609 |
| RLVTRYIFNRE [HLA-DQB1_Y62_Y58L_YF] | 0.695 |
| GVPLGYPIKAS [ELN_Y206_P211S] | 0.412 |
| DAANNYARGHY [TUBA3E_Y103_S101N] | 0.45 |
| REVPVYISEDS [SYNM_Y460_G462S] | 1.57 |
| GKSDPYHATTG [GJA1_Y247_S251T] | 0.409 |
| RGSQQYRALPV [TUBB8_Y281_T285P] | 0.546 |
| YNDSTYNQQLI [ZPLD1_Y198] | 0.471 |
| LLFRVYGLESL [INSR_Y94] | 1.4 |
| TNFCLYLRSLE [MTM1_Y71_R69C_YF] | 0.995 |

| Sequence | phosphorylation enrichment |
| --- | --- |
| EVDGLYREAPI [MYL12B_Y143_E141G] | 0.718 |
| EITSHYRHLLR [ZBTB46_Y14] | 0.517 |
| KPNMNYDKLSR [FLI1_Y332] | 0.4 |
| YDGKDYIALKE [HLA-A_Y147_N151K] | 0.739 |
| PLDGEYFTLHI [TP53_Y327_Q331H] | 4.7 |
| SHGKQYRVPSD [HHIPL2_Y395_R394Q] | 0.427 |
| TKEPKYGGAGS [KIAA1210_Y1615_E1616G] | 0.548 |
| AKKIKYFEGVS [PRKDC_Y682] | 0.332 |
| AEPNIYQEKLS [USP54_Y1233_D1231N] | 0.505 |
| YETVKYINNER [ABCB7_Y345_F346I] | 0.832 |
| WVFNHYRWFIW [BRCA2_Y2624_I2627F_YF] | 0.813 |
| GSIQQYTYKQE [PRG4_Y1271_I1272T] | 0.559 |
| EPVSDYINANI [PTPN11_Y304] | 0.673 |
| KEELAYLKKNH [KRT14_Y248] | 0.515 |
| NFATLYLKIYH [PDE6B_Y219] | 0.709 |
| LRVGFYESDVM [A2M_Y708] | 2.89 |

Tested on: Fer (mouse)
Experiment: as above

| Sequence | phosphorylation enrichment |
| --- | --- |
| IDSTPYRQWFE [RPS8_Y109_YF] | 0.406 |
| FETSHYPASPD [CTNND2_Y1217_YF] | 0.486 |
| NPIGLYSAETL [LDB3_Y202] | 1.12 |
| QELRRYLESGV [MICA_Y194_K196E] | 0.486 |
| KTSGNYLPVTG [WDR19_Y28_A30P] | 0.359 |
| IRYPPYTDWNQ [ALDH3B2_Y365_H361R] | 0.567 |
| LHVKMYNFLRS [ADGRG7_Y760_R756H] | 1.11 |
| KSDVVYTDWKK [ORM1_Y175] | 0.592 |
| RLVTRYIFNRE [HLA-DQB1_Y62_Y58L_YF] | 0.54 |
| GVPLGYPIKAS [ELN_Y206_P211S] | 0.376 |
| DAANNYARGHY [TUBA3E_Y103_S101N] | 0.355 |
| REVPVYISEDS [SYNM_Y460_G462S] | 1.2 |
| GKSDPYHATTG [GJA1_Y247_S251T] | 0.38 |
| RGSQQYRALPV [TUBB8_Y281_T285P] | 0.434 |
| YNDSTYNQQLI [ZPLD1_Y198] | 0.491 |
| LLFRVYGLESL [INSR_Y94] | 0.757 |
| TNFCLYLRSLE [MTM1_Y71_R69C_YF] | 0.847 |

| Sequence | phosphorylation enrichment |
| --- | --- |
| EVDGLYREAPI [MYL12B_Y143_E141G] | 0.504 |
| EITSHYRHLLR [ZBTB46_Y14] | 0.571 |
| KPNMNYDKLSR [FLI1_Y332] | 0.324 |
| YDGKDYIALKE [HLA-A_Y147_N151K] | 0.49 |
| PLDGEYFTLHI [TP53_Y327_Q331H] | 0.816 |
| SHGKQYRVPSD [HHIPL2_Y395_R394Q] | 0.354 |
| TKEPKYGGAGS [KIAA1210_Y1615_E1616G] | 0.457 |
| AKKIKYFEGVS [PRKDC_Y682] | 0.42 |
| AEPNIYQEKLS [USP54_Y1233_D1231N] | 0.34 |
| YETVKYINNER [ABCB7_Y345_F346I] | 10.5 |
| WVFNHYRWFIW [BRCA2_Y2624_I2627F_YF] | 0.575 |
| GSIQQYTYKQE [PRG4_Y1271_I1272T] | 0.437 |
| EPVSDYINANI [PTPN11_Y304] | 0.412 |
| KEELAYLKKNH [KRT14_Y248] | 0.375 |
| NFATLYLKIYH [PDE6B_Y219] | 0.492 |
| LRVGFYESDVM [A2M_Y708] | 1.62 |

Biological target: Fes (UniProt P07332)
Experiment: as above

Chain of Fes (P07332 whole entry, looked up): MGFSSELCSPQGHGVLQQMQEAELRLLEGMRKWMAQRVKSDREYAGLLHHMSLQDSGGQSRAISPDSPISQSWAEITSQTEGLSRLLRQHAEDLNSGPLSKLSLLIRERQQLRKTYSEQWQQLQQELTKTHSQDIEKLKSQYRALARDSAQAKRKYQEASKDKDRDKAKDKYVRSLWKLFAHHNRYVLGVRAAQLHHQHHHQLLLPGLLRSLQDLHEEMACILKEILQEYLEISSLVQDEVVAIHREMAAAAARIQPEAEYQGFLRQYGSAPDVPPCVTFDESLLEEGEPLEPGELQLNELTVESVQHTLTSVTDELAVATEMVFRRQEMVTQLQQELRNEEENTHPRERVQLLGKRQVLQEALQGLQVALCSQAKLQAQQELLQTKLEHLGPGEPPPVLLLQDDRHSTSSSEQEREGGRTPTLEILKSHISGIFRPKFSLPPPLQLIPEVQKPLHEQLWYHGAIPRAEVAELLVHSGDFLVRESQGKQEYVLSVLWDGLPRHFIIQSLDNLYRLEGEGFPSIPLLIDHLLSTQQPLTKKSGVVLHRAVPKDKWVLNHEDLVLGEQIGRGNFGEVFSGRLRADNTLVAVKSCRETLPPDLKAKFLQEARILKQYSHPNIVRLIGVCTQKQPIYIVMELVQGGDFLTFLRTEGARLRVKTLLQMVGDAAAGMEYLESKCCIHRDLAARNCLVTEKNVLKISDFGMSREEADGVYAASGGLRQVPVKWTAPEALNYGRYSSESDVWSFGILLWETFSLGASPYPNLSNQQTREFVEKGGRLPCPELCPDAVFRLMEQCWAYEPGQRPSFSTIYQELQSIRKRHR

| Sequence | phosphorylation enrichment |
| --- | --- |
| IDSTPYRQWFE [RPS8_Y109_YF] | 0.856 |
| FETSHYPASPD [CTNND2_Y1217_YF] | 0.77 |
| NPIGLYSAETL [LDB3_Y202] | 0.72 |
| QELRRYLESGV [MICA_Y194_K196E] | 0.812 |
| KTSGNYLPVTG [WDR19_Y28_A30P] | 0.543 |
| IRYPPYTDWNQ [ALDH3B2_Y365_H361R] | 0.826 |
| LHVKMYNFLRS [ADGRG7_Y760_R756H] | 1.89 |
| KSDVVYTDWKK [ORM1_Y175] | 1.02 |
| RLVTRYIFNRE [HLA-DQB1_Y62_Y58L_YF] | 0.815 |
| GVPLGYPIKAS [ELN_Y206_P211S] | 0.576 |
| DAANNYARGHY [TUBA3E_Y103_S101N] | 0.575 |
| REVPVYISEDS [SYNM_Y460_G462S] | 2.71 |
| GKSDPYHATTG [GJA1_Y247_S251T] | 0.506 |
| RGSQQYRALPV [TUBB8_Y281_T285P] | 0.686 |
| YNDSTYNQQLI [ZPLD1_Y198] | 0.738 |
| LLFRVYGLESL [INSR_Y94] | 1.76 |
| TNFCLYLRSLE [MTM1_Y71_R69C_YF] | 1.69 |

| Sequence | phosphorylation enrichment |
| --- | --- |
| EVDGLYREAPI [MYL12B_Y143_E141G] | 0.976 |
| EITSHYRHLLR [ZBTB46_Y14] | 0.819 |
| KPNMNYDKLSR [FLI1_Y332] | 0.486 |
| YDGKDYIALKE [HLA-A_Y147_N151K] | 0.913 |
| PLDGEYFTLHI [TP53_Y327_Q331H] | 1.68 |
| SHGKQYRVPSD [HHIPL2_Y395_R394Q] | 0.544 |
| TKEPKYGGAGS [KIAA1210_Y1615_E1616G] | 0.55 |
| AKKIKYFEGVS [PRKDC_Y682] | 0.547 |
| AEPNIYQEKLS [USP54_Y1233_D1231N] | 0.748 |
| YETVKYINNER [ABCB7_Y345_F346I] | 0.943 |
| WVFNHYRWFIW [BRCA2_Y2624_I2627F_YF] | 1.32 |
| GSIQQYTYKQE [PRG4_Y1271_I1272T] | 0.94 |
| EPVSDYINANI [PTPN11_Y304] | 0.847 |
| KEELAYLKKNH [KRT14_Y248] | 0.742 |
| NFATLYLKIYH [PDE6B_Y219] | 1.28 |
| LRVGFYESDVM [A2M_Y708] | 3.12 |

Biological target: Fyn (UniProt P06241)
Experiment: as above

Chain of Fyn (P06241 whole entry, looked up): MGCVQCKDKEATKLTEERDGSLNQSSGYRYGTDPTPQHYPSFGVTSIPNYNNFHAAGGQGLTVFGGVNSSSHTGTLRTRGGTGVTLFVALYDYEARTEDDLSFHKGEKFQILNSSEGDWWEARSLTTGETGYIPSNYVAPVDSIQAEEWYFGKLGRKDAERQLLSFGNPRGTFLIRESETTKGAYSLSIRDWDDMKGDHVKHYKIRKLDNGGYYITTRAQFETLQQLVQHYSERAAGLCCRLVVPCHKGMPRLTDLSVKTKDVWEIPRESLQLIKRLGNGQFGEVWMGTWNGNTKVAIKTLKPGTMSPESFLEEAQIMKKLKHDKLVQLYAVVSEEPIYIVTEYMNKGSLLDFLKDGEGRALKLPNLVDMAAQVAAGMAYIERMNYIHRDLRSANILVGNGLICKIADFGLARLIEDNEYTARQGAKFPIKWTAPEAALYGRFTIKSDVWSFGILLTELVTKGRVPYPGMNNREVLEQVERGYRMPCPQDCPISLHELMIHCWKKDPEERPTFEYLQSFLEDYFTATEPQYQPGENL

| Sequence | phosphorylation enrichment |
| --- | --- |
| IDSTPYRQWFE [RPS8_Y109_YF] | 0.302 |
| FETSHYPASPD [CTNND2_Y1217_YF] | 0.361 |
| NPIGLYSAETL [LDB3_Y202] | 0.666 |
| QELRRYLESGV [MICA_Y194_K196E] | 0.772 |
| KTSGNYLPVTG [WDR19_Y28_A30P] | 0.41 |
| IRYPPYTDWNQ [ALDH3B2_Y365_H361R] | 0.468 |
| LHVKMYNFLRS [ADGRG7_Y760_R756H] | 0.615 |
| KSDVVYTDWKK [ORM1_Y175] | 1.55 |
| RLVTRYIFNRE [HLA-DQB1_Y62_Y58L_YF] | 0.553 |
| GVPLGYPIKAS [ELN_Y206_P211S] | 0.368 |
| DAANNYARGHY [TUBA3E_Y103_S101N] | 0.421 |
| REVPVYISEDS [SYNM_Y460_G462S] | 0.89 |
| GKSDPYHATTG [GJA1_Y247_S251T] | 0.345 |
| RGSQQYRALPV [TUBB8_Y281_T285P] | 0.655 |
| YNDSTYNQQLI [ZPLD1_Y198] | 0.479 |
| LLFRVYGLESL [INSR_Y94] | 0.752 |
| TNFCLYLRSLE [MTM1_Y71_R69C_YF] | 0.594 |

| Sequence | phosphorylation enrichment |
| --- | --- |
| EVDGLYREAPI [MYL12B_Y143_E141G] | 0.488 |
| EITSHYRHLLR [ZBTB46_Y14] | 0.319 |
| KPNMNYDKLSR [FLI1_Y332] | 0.342 |
| YDGKDYIALKE [HLA-A_Y147_N151K] | 0.493 |
| PLDGEYFTLHI [TP53_Y327_Q331H] | 2.35 |
| SHGKQYRVPSD [HHIPL2_Y395_R394Q] | 0.34 |
| TKEPKYGGAGS [KIAA1210_Y1615_E1616G] | 0.459 |
| AKKIKYFEGVS [PRKDC_Y682] | 0.321 |
| AEPNIYQEKLS [USP54_Y1233_D1231N] | 0.727 |
| YETVKYINNER [ABCB7_Y345_F346I] | 1.22 |
| WVFNHYRWFIW [BRCA2_Y2624_I2627F_YF] | 0.462 |
| GSIQQYTYKQE [PRG4_Y1271_I1272T] | 0.37 |
| EPVSDYINANI [PTPN11_Y304] | 0.447 |
| KEELAYLKKNH [KRT14_Y248] | 0.395 |
| NFATLYLKIYH [PDE6B_Y219] | 0.42 |
| LRVGFYESDVM [A2M_Y708] | 1.28 |
